Tests used:
RAW264.7 cells = assay: Exogenous 2-AG metabolism to PGD2-G by RAW264.7 cells (LC/MS); format: cell-based, murine; details: inhibitor 3 μM, activated RAW264.7 cells, 2-AG 20 μM
Method: Briefly, macrophages (30-50% confluence) are activated with IFN-γ (10 units/mL) and LPS (1 μg/mL) in serum-free DMEM for 7 hr at 37° C. prior to treatment. Activated RAW264.7 cell media are aspirated and replaced with fresh serum-free DMEM or PBS. […] After 30 min, medium or PBS is removed and extracted two times with an equal volume of CHCl3:MeOH (2:1). The solvent is evaporated and the residue is dissolved in 1 mL H2O:MeCN (95:5) and applied to a water-charged C18 solid phase extraction column (Varian). Following a water wash, glyceryl prostaglandins are eluted with H2O:MeCN (3:7). The eluant is lyophilized, dissolved in H2O:MeCN (1:1), and subjected to LC/MS analysis. […] Activated RAW264.7 cell medium is aspirated and replaced with fresh serum-free DMEM. […] After 20 min, medium is removed and the cells are treated with 8.0 ng pentadeuterated glyceryl prostaglandin standard. Medium is collected and extracted two times with an equal volume of CHCl3:MeOH (2:1). The solvent is evaporated and the residue is redissolved in H2O:MeCN (1:1), filtered (0.22 μm nylon), and subjected to LC/MS analysis.

[1] = buffer
Method: Then, a metabolite of the COX-2 selective substrate, such as PGH2-G, is measured.

COX-2 = molecular target: T1, COX-2 (Homo sapiens, UniProt P35354); assay: HPLC/UV quantification of products in base-treated COX-2/2-AG incubation mixtures; format: biochemical; details: COX-2 oxygenation of 2-AG, n=5
T1 sequence (P35354 18-604): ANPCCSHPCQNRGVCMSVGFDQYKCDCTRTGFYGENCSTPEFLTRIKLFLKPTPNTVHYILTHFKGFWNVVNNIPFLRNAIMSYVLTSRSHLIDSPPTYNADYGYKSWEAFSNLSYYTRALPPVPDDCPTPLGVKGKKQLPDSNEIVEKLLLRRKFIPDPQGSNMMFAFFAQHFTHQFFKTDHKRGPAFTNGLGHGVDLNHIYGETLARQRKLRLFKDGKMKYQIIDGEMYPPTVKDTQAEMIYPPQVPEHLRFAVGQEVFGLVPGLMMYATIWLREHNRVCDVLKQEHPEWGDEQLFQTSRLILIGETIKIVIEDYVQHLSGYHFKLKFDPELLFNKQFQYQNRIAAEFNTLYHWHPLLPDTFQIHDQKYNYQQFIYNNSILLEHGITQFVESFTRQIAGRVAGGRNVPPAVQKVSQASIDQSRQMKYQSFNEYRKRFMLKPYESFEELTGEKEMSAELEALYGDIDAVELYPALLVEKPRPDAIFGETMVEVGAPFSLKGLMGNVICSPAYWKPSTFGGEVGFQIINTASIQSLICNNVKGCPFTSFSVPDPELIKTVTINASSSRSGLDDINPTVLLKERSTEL
Method: Estimates of relative amounts of the individual PG-Gs can be made by reversed-phase HPLC with UV detection. […] Quantification of PGE2-G and HETE-Gs is accomplished by HPLC/UV analysis of base-treated COX-2/2-AG incubation mixtures using 5-HETE as an internal standard. PGE2-G is the major product of oxygenation (PGE2-G/HETE-G=4.0±0.1, n=5) and 11-HETE-G is more abundant than 15-HETE-G (11-HETE-G/15-HETE-G=3.4±0.1, n=5). HETE-G regiochemistry is confirmed by mass spectrometry of saponified, HPLC-purified HETE products.

[2] = substrate: CCCCC/C=C\C/C=C\C/C=C\C/C=C\CCCCOC(CO)CO; assay: Steady-state kinetics of COX-2 mediated oxygenation (O2 uptake), murine enzyme; format: biochemical; details: other: mCOX-2, substrate oxygenation
Method: (§1) The ability of COX-1 and COX-2 to metabolize different substrates, such as 2-AG and arachidonic acid (AA) can be determined, for example, by measuring relative oxygen uptake. FIG. 9 is a representative oxygen uptake curve for 100 μM 2-AG or AA treated with 150 nM purified COX-2 or 150 nM ovine COX-1. The horizontal bar represents 20-seconds. The vertical bar represents 10 μM O2 uptake.

[3] = substrate: CCCCC/C=C\C/C=C\C/C=C\C/C=C\CCCC(=O)O; assay: as above; format: biochemical; details: other: mCOX-2, substrate oxygenation
Method: as §1

[4] = substrate: CCCCC/C=C\C/C=C\C/C=C\C/C=C\CCCCOC(CO)CO; assay: Steady-state kinetics of COX-2 mediated oxygenation (O2 uptake), human enzyme; format: biochemical; details: other: hCOX-2, substrate oxygenation
Method: as §1

[5] = substrate: CCCCC/C=C\C/C=C\C/C=C\C/C=C\CCCC(=O)O; assay: as above; format: biochemical; details: other: hCOX-2, substrate oxygenation
Method: as §1

COc1ccc2c(c1)c(CC(=O)O)c(C)n2C(=O)c1ccc(Cl)cc1 [indomethacin]
Effect on PGD2-G biosynthesis (RAW264.7 cells): inhibited

CCCCC[C@H](O)/C=C/[C@@H]1[C@@H](C/C=C\CCCC(=O)OC(CO)CO)[C@@H]2C[C@H]1OO2 [PGH2-G, prostaglandin H2-glycerol ester]
half-life in aqueous solution [1]: approximately 20 seconds

COc1ccc2c(c1)c(CC(=O)NCCc1ccccc1)c(C)n2C(=O)c1ccc(Cl)cc1 [indomethacin phenethylamide, 2-[1-(4-chlorobenzoyl)-5-methoxy-2-methyl-1H-indol-3-yl]-N-phenethylacetamide]
Effect on PGD2-G biosynthesis (RAW264.7 cells): inhibited

CCCCC[C@H](O)/C=C/[C@H]1[C@H](O)CC(=O)[C@@H]1C/C=C\CCCC(=O)OCC(O)CO (some centres unmarked) [PGE2-G, prostaglandin E2-glycerol ester]
PGE2-G/HETE-G product ratio (COX-2): 4.0±0.1

CCCCCC=CC=CC(O)CC=CCC=CCCCC(=O)OC(CO)CO (centres unmarked) [11-HETE-G, 11-hydroxy-eicosatetranoic glycerol ester]
11-HETE-G/15-HETE-G product ratio (COX-2): 3.4±0.1

B1: mCOX-2 (Mus musculus) (protein)
chain: ANPCCSNPCQNRGECMSTGFDQYKCDCTRTGFYGENCTTPEFLTRIKLLLKPTPNTVHYILTHFKGVWNIVNNIPFLRSLIMKYVLTSRSYLIDSPPTYNVHYGYKSWEAFSNLSYYTRALPPVADDCPTPMGVKGNKELPDSKEVLEKVLLRREFIPDPQGSNMMFAFFAQHFTHQFFKTDHKRGPGFTRGLGHGVDLNHIYGETLDRQHKLRLFKDGKLKYQVIGGEVYPPTVKDTQVEMIYPPHIPENLQFAVGQEVFGLVPGLMMYATIWLREHNRVCDILKQEHPEWGDEQLFQTSRLILIGETIKIVIEDYVQHLSGYHFKLKFDPELLFNQQFQYQNRIASEFNTLYHWHPLLPDTFNIEDQEYSFKQFLYNNSILLEHGLTQFVESFTRQIAGRVAGGRNVPIAVQAVAKASIDQSREMKYQSLNEYRKRFSLKPYTSFEELTGEKEMAAELKALYSDIDVMELYPALLVEKPRPDAIFGETMVELGAPFSLKGLMGNPICSPQYWKPSTFGGEVGFKIINTASIQSLICNNVKGCPFTSFNVQDPQPTKTATINASASHSRLDDINPTVLIKRRSTEL
Km [2]: 4.7 ± 0.8 µM | kcat [2]: 11.1 ± 0.7 s⁻¹ | kcat/Km [2]: 2.3e+06 M⁻¹ s⁻¹ | Km [3]: 8.2 ± 1.6 µM | kcat [3]: 20.5 ± 1.6 s⁻¹ | kcat/Km [3]: 2.5e+06 M⁻¹ s⁻¹

B2: hCOX-2 (Homo sapiens) (protein)
chain: ANPCCSHPCQNRGVCMSVGFDQYKCDCTRTGFYGENCSTPEFLTRIKLFLKPTPNTVHYILTHFKGFWNVVNNIPFLRNAIMSYVLTSRSHLIDSPPTYNADYGYKSWEAFSNLSYYTRALPPVPDDCPTPLGVKGKKQLPDSNEIVEKLLLRRKFIPDPQGSNMMFAFFAQHFTHQFFKTDHKRGPAFTNGLGHGVDLNHIYGETLARQRKLRLFKDGKMKYQIIDGEMYPPTVKDTQAEMIYPPQVPEHLRFAVGQEVFGLVPGLMMYATIWLREHNRVCDVLKQEHPEWGDEQLFQTSRLILIGETIKIVIEDYVQHLSGYHFKLKFDPELLFNKQFQYQNRIAAEFNTLYHWHPLLPDTFQIHDQKYNYQQFIYNNSILLEHGITQFVESFTRQIAGRVAGGRNVPPAVQKVSQASIDQSRQMKYQSFNEYRKRFMLKPYESFEELTGEKEMSAELEALYGDIDAVELYPALLVEKPRPDAIFGETMVEVGAPFSLKGLMGNVICSPAYWKPSTFGGEVGFQIINTASIQSLICNNVKGCPFTSFSVPDPELIKTVTINASSSRSGLDDINPTVLLKERSTEL
Km [4]: 4.4 ± 0.9 µM | kcat [4]: 17.4 ± 1.1 s⁻¹ | kcat/Km [4]: 4e+06 M⁻¹ s⁻¹ | Km [5]: 6.1 ± 0.6 µM | kcat [5]: 14.7 ± 0.5 s⁻¹ | kcat/Km [5]: 2.4e+06 M⁻¹ s⁻¹

Reference: patent US7628975B2, “Compositions and methods for detecting and quantifying COX-2 activity and 2-arachidonylgycerol metabolites” (Vanderbilt University, priority 2000, dated 2009)
